Assay [1] concerns the target FAM118B-L32R, full length, tagged with mEGFP or with mCherry, Q9BPY3. As to the kind of experiment: FCCS (fluorescence cross-correlation spectroscopy) in living U2OS cells. The settings on record: chain shown with the change; mEGFP-F122R (green label) coexpressed with mCherry-L32R (red label); n = 15 cells per condition; read off a plot.
Assay [2] deals with FAM118B-F122R, full length, tagged with mEGFP or with mCherry, Q9BPY3. The assay is described as above. The settings on record: chain shown with the change, n = 15 cells per condition, read off a plot.

This note sets out measurements from publication PMC12700824.

B1: mEGFP–FAM118B WT (full-length human FAM118B fused at its N terminus to mEGFP), Q9BPY3 binder:F122R; target:L32R (protein)
chain: MASTGSQASDIDEIFGFFNDGEPPTKKPRKLLPSLKTKKPRELVLVIGTGISAAVAPQVPALKSWKGLIQALLDAAIDFDLLEDEESKKFQKCLHEDKNLVHVAHDLIQKLSPRTSNVRSTRFKDCLYEVFDDLESKMEDSGKQLLQSVLHLMENGALVLTTNFDNLLELYAADQGKQLESLDLTDEKKVLEWAQEKRKLSVLHIHGVYTNPSGIVLHPAGYQNVLRNTEVMREIQKLYENKSFLFLGCGWTVDDTTFQALFLEAVKHKSDLEHFMLVRRGDVDEFKKLRENMLDKGIKVISYGDDYADLPEYFKRLTCEISTRGTSAGMVREGQLNGSSAAHSEIRGCST
In assay [1], B1 displayed a response of 88%.

B2: mEGFP–FAM118B WT (full-length human FAM118B fused at its N terminus to mEGFP), Q9BPY3 binder:F122R; target:F122R (protein)
chain: MASTGSQASDIDEIFGFFNDGEPPTKKPRKLLPSLKTKKPRELVLVIGTGISAAVAPQVPALKSWKGLIQALLDAAIDFDLLEDEESKKFQKCLHEDKNLVHVAHDLIQKLSPRTSNVRSTRFKDCLYEVFDDLESKMEDSGKQLLQSVLHLMENGALVLTTNFDNLLELYAADQGKQLESLDLTDEKKVLEWAQEKRKLSVLHIHGVYTNPSGIVLHPAGYQNVLRNTEVMREIQKLYENKSFLFLGCGWTVDDTTFQALFLEAVKHKSDLEHFMLVRRGDVDEFKKLRENMLDKGIKVISYGDDYADLPEYFKRLTCEISTRGTSAGMVREGQLNGSSAAHSEIRGCST
Take B2: the response in assay [2] (mEGFP-F122R (green label) coexpressed with mCherry-F122R (red label)) was 6%.

B3: mEGFP–FAM118B WT (full-length human FAM118B fused at its N terminus to mEGFP), Q9BPY3 binder:L32R; target:F122R (protein)
chain: MASTGSQASDIDEIFGFFNDGEPPTKKPRKLRPSLKTKKPRELVLVIGTGISAAVAPQVPALKSWKGLIQALLDAAIDFDLLEDEESKKFQKCLHEDKNLVHVAHDLIQKLSPRTSNVRSTFFKDCLYEVFDDLESKMEDSGKQLLQSVLHLMENGALVLTTNFDNLLELYAADQGKQLESLDLTDEKKVLEWAQEKRKLSVLHIHGVYTNPSGIVLHPAGYQNVLRNTEVMREIQKLYENKSFLFLGCGWTVDDTTFQALFLEAVKHKSDLEHFMLVRRGDVDEFKKLRENMLDKGIKVISYGDDYADLPEYFKRLTCEISTRGTSAGMVREGQLNGSSAAHSEIRGCST
Consider B3, for which, in assay [2] (mEGFP-L32R (green label) coexpressed with mCherry-F122R (red label)), the response was determined as 90%.
